Measurements: US20220105194A1, “CONJUGATE COMPRISING LIGAND, SPACER, PEPTIDE LINKER, AND BIOMOLECULE” (ASTELLAS PHARMA INC., priority 2019, published 2022)

B1: ([Gd/DOTA-NH-CH2-(1,4-Ph)-NH-C(═O)-Met-Ile-NH-(CH2)2-(A-4 and/or A-5)]p-Fab^5) (Fab, V domains shown)
VH: QVQLVQSGAEVKKPGASVKVSCKASGYTFTNYGLSWVRQAPGQGLEWMGENHPGSGIIYHNEKFRGRVTLTADRSTSTAYMELSSLRSEDTAVYYCARSSGTRGFDYWGQGTLVTVSS
VL: DVVMTQTPLSLSVTPGQPASISCRSSQSIVHSNGNTYLEWYLQKPGQSPQLLIYRVSNRFSGVPDRFSGSGSGTDFTLKISRVEAEDVGVYYCFQGSHGPWTFGQGTKLEIKR
modifications: labeling portion on p amino groups of the Fab; chain and sites not stated
B2: Ex-No 108, conjugate with Fab^5 that does not contain a peptide linker (structure only as drawing CHEM-US-00162) (Fab, V domains shown)
VH: B1 VH
VL: B1 VL
modifications: labeling portion on p amino groups of the Fab; chain and sites not stated
B3: ([Gd/DOTA-NH-CH2-(1,4-Ph)-NH-C(═O)-Met-Ile-NH-(CH2)2-(A-3)]p-Fab^5) (Fab, V domains shown)
VH: B1 VH
VL: B1 VL
modifications: labeling portion on p amino groups of the Fab; chain and sites not stated
B4: [Gd/DOTA-NH—(CH2CH2O)3—CH2—C(═O)—NH—CH2-(1,3-Ph)-C(═O)-Met-Gly-Lys*-Z2(#N)]p-Fab^2 (conjugate)
heavy: EVQLVESGGGLVQPGGSLRLSCAASGFNIRDTYMHWVRQAPGKGLEWVARIDPANGNSRYVPKFQGRFTISADTSRNTAYLQMNSLRAEDTAVYYCAPFGYYVSDYAMAYWGQGTLVTVSSASTKGPSVFPLAPSSKSTSGGTAALGCLVKDYFPEPVTVSWNSGALTSGVHTFPAVLQSSGLYSLSSVVTVPSSSLGTQTYICNVNHKPSNTKVDKKVEPKSCD
light: DIQLTQSPSSLSASVGDRVTITCRAGESVDIFGVGFLHWYQQKPGKAPKLLIYRASNLESGIPSRFSGSGSRTDFTLTISSLQPEDFATYYCQQTNEDPYTFGQGTKVEIKRTVAAPSVFIFPPSDEQLKSGTASVVCLLNNFYPREAKVQWKVDNALQSGNSQESVTEQDSKDSTYSLSSTLTLSKADYEKHKVYACEVTHQGLSSPVTKSFNRGEC
B5: [Gd/DOTA-NH—(CH2CH2O)3—CH2—C(═O)—NH—CH2-(1,3-Ph)-C(═O)-Met-Gly-Lys*-Z2(#S)]p-Fab^2 (conjugate)
heavy: B4 heavy
light: B4 light
B6: [Gd/DOTA-NH—CH2-(1,3-Ph)-C(═O)-Met-Gly-Lys*-Z2(#S)]p-Fab^2 (conjugate)
heavy: B4 heavy
light: B4 light
B7: [Gd/DOTA-NH—CH2-(1,4-Ph)-NH—C(═O)-Met-Ile-NH—(CH2)2—Z(#N)]p-Fab^2 (conjugate)
heavy: B4 heavy
light: B4 light
B8: ([Gd/DOTA-[2,5-(1,2,3,4-tetrahydroisoquinoline)]-C(═O)-Met-Gly-Lys*-C(═S)-NH-(1,4-Ph)-NH-C(═S)]p-Fab^5) (Fab, V domains shown)
VH: B1 VH
VL: B1 VL
modifications: labeling portion on p amino groups of the Fab; chain and sites not stated
B9: ([Gd/DOTA-NH-CH2-(1,4-Ph)-NH-C(═O)-Met-Ile-NH-(CH2)2-Z1(#N)]p-Fab^5) (Fab, V domains shown)
VH: B1 VH
VL: B1 VL
modifications: labeling portion on p amino groups of the Fab; chain and sites not stated
B10: ([Gd/DOTA-NH-CH2-(1,4-Ph)-NH-C(═O)-Met-Ile-NH-(CH2)2-Z1(#S)]p-Fab^5) (Fab, V domains shown)
VH: B1 VH
VL: B1 VL
modifications: labeling portion on p amino groups of the Fab; chain and sites not stated
B11: [Gd/DOTA-NH—(CH2CH2O)3—CH2—C(═O)—NH—CH2-(1,3-Ph)-C(═O)-Gly-Lys*—Z2(#N)]p-Fab^2 (conjugate)
heavy: B4 heavy
light: B4 light
B12: [Gd/DOTA-NH—CH2-(1,3-Ph)-C(═O)-Asp-Gly-Lys*-Z2(#N)]p-Fab^2 (conjugate)
heavy: B4 heavy
light: B4 light
B13: [Gd/DOTA-NH—CH2-(1,3-Ph)-C(═O)-Met-Gly-Lys*-Z2(#N)]p-Fab^2 (conjugate)
heavy: B4 heavy
light: B4 light
B14: Ex-No 10: (Y—S1—X)p-Fab^2: Y Gd/DOTA, S1 bond, X -Met-Ile-Lys*-Z2(#N)— (conjugate)
heavy: B4 heavy
light: B4 light
B15: [Gd/4arm-DOTA-CH2-(1,4-Ph)-NH—C(═S)—NH—CH2-(1,3-Ph)-C(═O)-Met-Gly-Lys*-Z2(#S)]p-Fab^2 (conjugate)
heavy: B4 heavy
light: B4 light
B16: [Gd/4arm-DOTA-CH2-(1,4-Ph)-NH—C(═S)-Gly-Phe-Lys*-Z2(#N)]p-Fab^2 (conjugate)
heavy: B4 heavy
light: B4 light

biological target: human cancer-specific MUC1 peptide (PTL 1) (human); assay: ELISA, immobilised MUC1 peptide (Example 6-1); conditions: not given
Sequence (main, as listed by the source): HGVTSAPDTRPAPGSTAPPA

In order of falling EC50:
1. B3  0.15 nM
2. B1  0.08 nM
3. B2  0.07 nM

tested on: not given; assay: not given; parameters: species or system mice (BALB/c nu/nu); conditions: mouse, in vivo

With B4 the “Renal residual amount (cancer-bearing mice), % of dose/tissue” value was 8.40 % of dose/tissue.
In the case of B5, the “Renal residual amount (cancer-bearing mice), % of dose/tissue” value is reported as 9.40 % of dose/tissue.
In the case of B6, the “Renal residual amount (cancer-bearing mice), % of dose/tissue” value is reported as 12.33 % of dose/tissue.
For B7, the “Renal residual amount (cancer-bearing mice), % of dose/tissue” value was 5.77 % of dose/tissue.

In order of rising “Renal residual amount (cancer-bearing mice), Proportion of decrease (%)” value:
1. B6  52.26%
2. B5  63.61%
3. B4  67.48%
4. B7  77.68%

biological target: human cancer-specific MUC1 peptide (PTL 1) (human); assay: ELISA, immobilised MUC1 peptide (Example 6-2); conditions: not given

In order of falling EC50:
1. B8  0.19 nM
2. B10  0.09 nM
3. B9  0.08 nM
4. B2  0.07 nM

tested on: not given; assay: not given; conditions: mouse, in vivo; remark: another data set of the same source

In order of rising “Proportion of decrease (%) in the amount of Gd contained in the kidneys” value:
1. B11  44.8%
2. B13  50.3%
3. B12  52.2%
4. B6  58.3%
5. B5  77.4%
6. B4  78.0%

tested on: not given; assay: not given; parameters: species or system mice (BALB/c or BALB/c nu/nu); conditions: mouse, in vivo; remark: another data set of the same source

For B14, the “Renal residual amount (normal mice), % of dose/tissue” value was 20.10 % of dose/tissue.
In the case of B12, the “Renal residual amount (normal mice), % of dose/tissue” value is reported as 21.67 % of dose/tissue.
With B7 the “Renal residual amount (normal mice), % of dose/tissue” value was 2.60 % of dose/tissue.

In order of falling “Renal residual amount (normal mice), Proportion of decrease (%)” value:
1. B7  91.13%
2. B14  31.46%
3. B12  26.12%

tested on: not listed separately; assay: Example 4-1: kidney accumulation evaluation test of Gd-labeled conjugates (normal mice); conditions: about 24 hours, relative to control conjugate Ex-No 47
Description: A Gd-labeled conjugate of the conjugate containing a peptide linker produced in one of the above Examples was administered from the tail vein of mice (BALB/c or BALB/c nu/nu) so that the protein mass was 0.02 mg (100 μL) per animal. After about 24 hours, the mice were sacrificed and the kidneys were removed, and the amount of Gd in the kidneys was measured using ICP-MS. The present test was carried out in 3 cases in each group, the mean value of the 3 cases was calculated, and the amount of Gd contained per kidney after administration was shown as a percentage (% of dose/tissue) of the total amount of Gd administered.
Based on the percentage of the control conjugate (% of dose/tissue), the proportion of decrease in the amount of Gd contained in the kidneys of each of the conjugates having a peptide linker was determined and shown in Table 28.

In order of falling “Proportion of decrease (%) in the amount of Gd contained in the kidneys” value:
1. B15  72.9%
2. B16  68.0%
